Laboratory results reported in publication PMC3513267 (Journal of molecular biology, 2011).
Like-named read-outs stand apart in the source and are kept apart here.

Assays:
PKA-C = PKA-C (Mus musculus, UniProt P05132); assay: PKA-C catalyzed steady-state phosphorylation assay; assay type: biochemical; conditions: for catalytic efficiency kcat/Km: spectrophotometric, 340 nm, 299 K, 50 mM MOPS pH 7.0, 20 mM DTT, 10 mM MgCl2, 5.0 mM ATP, 1.0 mM PEP, 0.2 mM NADH, triplicate
[1] = cited from earlier work
NMR secondary structure = conditions: in the presence of DPC micelles

Substance | catalytic efficiency kcat/Km (PKA-C; absence of membranes) | R-state population ([1]; free in solution) [%] | secondary structure (CSI and SSP scores) (NMR secondary structure) | phosphorylation efficiency (in words) (PKA-C; PLN in DPC micelles, most helical construct studied) | catalytic efficiency kcat/Km (PKA-C; full-length PLN in DPC micelles) | R-state population ([1]; in DPC micelles)
PLN1–20: peptide corresponding to the cytoplasmic domain Ia of phospholamban (MEKVQYLTRSAIRRASTIEM; UniProt P26678 1-20, looked up, fragment) | ~ 0.6 µM^−1s^−1 | 100 | the peptide forms a stable α-helix |  |  | 
PLN: synthetic and recombinant versions of full-length PLN with no lipidation; membrane protein that inhibits SERCA |  |  |  | the phosphorylation efficiency is drastically lower | ~ 0.06 µM^−1s^−1 | ~ 4%
